Source: patent US11891634B2, “PDE5A destabilizing domains” (The Board of Trustees of the Leland Stanford Junior …, priority 2017, dated 2024)

Key:
[1] = test system: NIH3T3 cells expressing AcGFP-PDE5A fusions; assay: FACS analysis of C-terminal PDE5A mutants (AcGFP-PDE5A fusions), Sildenafil vs vehicle; format: cell-based, mouse; settings: Table 2, 24 hours; for Mean Fluorescence intensity: NIH3T3
Experimental: The NIH3T3 cell line was cultured in DMEM supplemented with 10% heat-inactivated donor bovine serum (Invitrogen), 2 mM glutamine, 100 U/ml penicillin and 100 μg/ml streptomycin.
The ΦNX ecotropic packaging cell line was transfected using standard Lipofectamine 2000 protocols. Viral supernatants were harvested 48 hours, post transfection, filtered and concentrated 10-fold using Amicon Ultra centrifugal filter device with a 100kDa cutoff. NIH 3T3 cells were incubated with concentrated retroviral supernatants supplemented with 4 μg/ml polybrene for 4 hours at 37° C. Cells were washed once with PBS and cultured in growth media for 24-36 hours to allow for viral integration.
The transduced NIH3T3 cells were subjected to analysis using fluorescence-activated cell sorting (FACS) to screen the libraries of PDE5A mutants. 24 hours prior to analysis, transduced NIH3T3 cells were plated at 1×10^5 cells per well of a 12-well plate. Cells were removed from the plate using PBS and 2 mM EDTA, washed once with PBS, and resuspended in 200 μL, PBS. […]
To identify destabilizing domains that are responsive to the PDE5A ligand, Sildenafil, a cell-based screening assay was employed in which the fluorescence of green fluorescent protein derived from Aequorea coerulescens (AcGFP) served as an indicator of PDE5A stability. […]
A library of AcGFP-PDE5A fusions i.e., C-terminal PDE5A mutants was screened using the cell-based screening assay described previously to identify C-terminal destabilizing domains. […] The stabilization ratio was calculated as the fold change in GFP intensity of the AcGFP-PDE5A construct in Sildenafil treated sample compared to vehicle alone treated sample. […]
Residue D764 was identified as a mutational hotspot from sequence analysis. […] AcGFP-PDE5A variants were evaluated for Sildenafil dependent stabilization via FACS as described previously. […] The stabilization ratio was calculated as the fold change in GFP intensity of the AcGFP-PDE5A construct in Sildenafil treated sample compared to vehicle alone treated sample. […]

[2] = test system: HCT 116 cells transduced with the PDE5A DD derived GFP constructs; assay: Response to Tadalafil, GFP expression by FACS in HCT116; format: cell-based, human; settings: for MFI / Stabilization ratio with Tadalafil: 48 hours, HCT116
Experimental: PDE5AN (#3) was cloned as AcGFP fusion into pELNS vector carrying mCherry marker and packaged in lentiviral vectors. HCT116 cells were transduced with the construct and stable integrants were selected by cell sorting using mCherry marker. Cells were treated with vehicle (dimethyl sulfoxide, DMSO) or varying doses of Tadalafil (TDF) for 48 hrs with doses ranging from 0.01 μM to 100 μM. Following the treatment, cells were analyzed for GFP expression using FACS. Basal expression was calculated as the ratio of GFP signal in the absence of ligand for a given cell line to auto fluorescence of parental HCT-116 cells. Stabilization ratio was calculated as the ratio of the GFP signal observed in the presence of stabilizing ligand to the signal from the same cell line in the absence of ligand.
HCT 116 cells transduced with the PDE5A DD derived GFP constructs were also tested with increasing doses of Tadalafil. The HCT116 cells were incubated for 48 hours with Tadalafil starting at dose 0.01 μM to 100 μM. The GFP intensity of the Tadalafil treated samples was compared to the parental untransduced HCT116 and DMSO treated cells for each construct. The mean fluorescence intensity was calculated for each sample and used to calculate the stabilization ratios as well as the basal expression for each construct. The stabilization ratios are shown in Table 19 and Table 20 and the basal expression is show in Table 21.

B1: PDE5AC (#42): AcGFP fused to C-terminal DD 535-860 of PDE5A (E535D, K555R, F564S, Q589R, K630R, C677R, N742S, I799T, M816A), SEQ ID NO. 28 (protein)
chain: DETRELQSLAAAVVPSAQTLRITDFSFSDSELSDLETALCTIRMFTDLNLVQNFRMKHEVLCRWILSVKKNYRKNVAYHNWRHAFNTAQCMFAALRAGKIQNKLTDLEILALLIAALSHDLDHRGVNNSYIQRSEHPLAQLYRHSIMEHHHFDQCLMILNSPGNQILSGLSIEEYKTTLKIIKQAILATDLALYIKRRGEFFELIRKSQFNLEDPHQKELFLAMLMTACDLSAITKPWPIQQRIAELVATEFFDQGDRERKELNTEPTDLMNREKKNKIPSAQVGFIDAICLQLYEALTHVSEDCFPLLDGCRKNRQKWQALAEQQ
modifications: /note=“Description of Artificial Sequence Synthetic Destabilizing Domain (DD)”
In the case of B1, the “Mean Fluorescence intensity” value ([1]; Sildenafil (10 μM) +) is reported as 5861, the “Mean Fluorescence intensity” value ([1]; Sildenafil (10 μM) −, vehicle alone) is reported as 1658 and the Stabilization ratio ([1]; fold change in GFP intensity, Sildenafil 10 μM vs vehicle alone) is reported as 3.5. For the same molecule, the MFI ([2]; DMSO (no Tadalafil)) was 22601, the “Basal expression” value ([2]; Table 21, MFI with DMSO / parental HCT116, Tadalafil experiment) was 17.66 and the “Stabilization ratio with Tadalafil” value ([2]; Tadalafil 0.01 μM vs DMSO) was 1.0. The MFI ([2]; Tadalafil 0.01 μM) was 22787, the “Stabilization ratio with Tadalafil” value ([2]; Tadalafil 0.02 μM vs DMSO) was 1.0 and the MFI ([2]; Tadalafil 0.02 μM) was 23274. The “Stabilization ratio with Tadalafil” value ([2]; Tadalafil 0.05 μM vs DMSO) was 1.0, the MFI ([2]; Tadalafil 0.05 μM) was 23278 and the “Stabilization ratio with Tadalafil” value ([2]; Tadalafil 0.14 μM vs DMSO) was 1.1. The MFI ([2]; Tadalafil 0.14 μM) was 24532, the “Stabilization ratio with Tadalafil” value ([2]; Tadalafil 0.41 μM vs DMSO) was 1.2 and the MFI ([2]; Tadalafil 0.41 μM) was 26765. The “Stabilization ratio with Tadalafil” value ([2]; Tadalafil 1.23 μM vs DMSO) was 1.6, the MFI ([2]; Tadalafil 1.23 μM) was 35325 and the “Stabilization ratio with Tadalafil” value ([2]; Tadalafil 3.7 μM vs DMSO) was 2.6. For the same molecule, the MFI ([2]; Tadalafil 3.7 μM) was 59821, the “Stabilization ratio with Tadalafil” value ([2]; Tadalafil 11.11 μM vs DMSO) was 4.1 and the MFI ([2]; Tadalafil 11.11 μM) was 92400. The “Stabilization ratio with Tadalafil” value ([2]; Tadalafil 33.33 μM vs DMSO) was 5.4, the MFI ([2]; Tadalafil 33.33 μM) was 122658 and the “Stabilization ratio with Tadalafil” value ([2]; Tadalafil 100 μM vs DMSO) was 6.2. It also gave an MFI ([2]; Tadalafil 100 μM) of 139002.
